The text below walks through data of paper PMC11162770, “The mutation R107Q alters mtSSB ssDNA compaction ability and binding dynamics” (Nucleic Acids Research, 2024).

Data set [1] has as its target T1, mtSSB WT-Alexa555/647 (human) (UniProt Q04837).
T1 sequence: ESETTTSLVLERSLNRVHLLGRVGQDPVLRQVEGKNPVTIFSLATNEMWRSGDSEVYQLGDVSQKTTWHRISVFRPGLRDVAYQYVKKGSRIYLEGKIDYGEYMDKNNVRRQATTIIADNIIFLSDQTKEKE
The data set can be described thus: competition. The following applies: WT-Alexa647 vs R107Q-Alexa555 150 nM each (1:1); 24% of ssDNA WT only, 76% both; EMSA: 20 mM Tris-HCl pH 7.8, 10 mM MgCl2, 0.1 mg/ml BSA, 10 mM DTT, 10% glycerol, 2 mM ATP, room temperature; TIRF: ssDNA diluted in 20 mM TrisOAc pH 8, 20% ….

Data set [2] deals with mtSSB R107Q-Alexa555/647 (human). The data set can be described thus: competition. Particulars: EMSA: 20 mM Tris-HCl pH 7.8, 10 mM MgCl2, 0.1 mg/ml BSA, 10 mM DTT, 10% glycerol, 2 mM ATP.
Data set [3] deals with T1, mtSSB WT-Alexa555/647 (human). The data set can be described thus: TIRF dissociation. The following applies: EMSA: 20 mM Tris-HCl pH 7.8, 10 mM MgCl2, 0.1 mg/ml BSA, 10 mM DTT, 10% glycerol, 2 mM ATP, room temperature, TIRF: ssDNA diluted in 20 mM TrisOAc pH 8, 20% ….
The subject of data set [4] is mtSSB R107Q-Alexa555/647 (human). The data set can be described thus: TIRF dissociation. Particulars: unwrapping almost 3 times faster than WT, EMSA: 20 mM Tris-HCl pH 7.8, 10 mM MgCl2, 0.1 mg/ml BSA, 10 mM DTT, 10% glycerol, 2 mM ATP, room temperature, TIRF: ssDNA diluted in 20 mM TrisOAc pH 8, 20% ….
Data set [5] deals with the molecule itself. The data set can be described thus: mass photometry; Refeyn TwoMP; proteins prepared at 1 uM and diluted to 100 nM before measurement; data collected for one minute; oligomeric state in solution (tetramer).
For data set [6], the target named is T2, mtSSB R107Q (His-tag, C-terminal Cys) (human, UniProt Q04837 17-148, R107Q).
T2 sequence: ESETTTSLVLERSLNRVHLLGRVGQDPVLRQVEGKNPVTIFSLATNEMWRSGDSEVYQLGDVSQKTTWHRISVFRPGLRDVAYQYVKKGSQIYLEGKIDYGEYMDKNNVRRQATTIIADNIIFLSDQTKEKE
The data set can be described thus: BLI; 1:1 fit; Discussion swaps the 30/60-nt labels; EMSA: 20 mM Tris-HCl pH 7.8, 10 mM MgCl2, 0.1 mg/ml BSA, 10 mM DTT, 10% glycerol, 2 mM ATP, room temperature; TIRF: ssDNA diluted in 20 mM TrisOAc pH 8, 20% sucrose, 20 mM DTT, NaOAc 0-400 mM added; BLI and AFS buffers not in material. Particulars: protein: recombinant; tags: N-terminal His; extra C-terminal Cys; chain copies: 4; single strand.

For data set [7], the target named is T3, mtSSB WT (His-tag, C-terminal Cys) (human, UniProt Q04837 17-148).
T3 sequence: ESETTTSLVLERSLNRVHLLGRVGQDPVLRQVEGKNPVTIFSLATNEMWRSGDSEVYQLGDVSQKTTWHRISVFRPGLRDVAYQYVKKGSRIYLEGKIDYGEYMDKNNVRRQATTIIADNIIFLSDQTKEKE
The description is as above. Particulars: protein: recombinant; tags: N-terminal His; extra C-terminal Cys; chain copies: 4; single strand.

Regarding lambda ssDNA, the binding signal (% of mtSSB on co-coated ssDNA) in data set [1] came out at 73; in data set [2] (R107Q-Alexa555 150 nM vs WT-Alexa647 15 nM (1:0.1), room …, TIRF: ssDNA diluted in 20 mM TrisOAc pH 8, 20% suc), 94. Further, the binding signal (% of ssDNA coated by R107Q only) in data set [2] (R107Q-Alexa555 vs WT-Alexa647 150 nM each (1:1), bound only together with WT, room temperature, TIRF: ssDNA diluted in 20 mM TrisOAc pH 8, 20% …) is 0. Further, the binding signal (% lost after salt) in data set [3] (100 mM NaOAc) was found to be 20; in data set [3] (400 mM NaOAc), 20; in data set [4] (100 mM NaOAc), 40; in data set [4] (400 mM NaOAc) it was 77.

B1: Mitochondrial single-stranded DNA-binding protein, wild type (mtSSB^WT), lacking the mitochondrial targeting sequence, with N-terminal His-tag and C-terminal … (natural protein, human)
chain: ESETTTSLVLERSLNRVHLLGRVGQDPVLRQVEGKNPVTIFSLATNEMWRSGDSEVYQLGDVSQKTTWHRISVFRPGLRDVAYQYVKKGSRIYLEGKIDYGEYMDKNNVRRQATTIIADNIIFLSDQTKEKEC
notes: one cysteine residue added at the C-terminus for maleimide labelling; not shown: His-tag, N-terminal, kept
For B1, in data set [5], the “stoichiometry N” value was 4.

B2: Mitochondrial single-stranded DNA-binding protein variant R107Q (mtSSB^R107Q), lacking the mitochondrial targeting sequence, with N-terminal His-tag and … (natural protein, human)
chain: ESETTTSLVLERSLNRVHLLGRVGQDPVLRQVEGKNPVTIFSLATNEMWRSGDSEVYQLGDVSQKTTWHRISVFRPGLRDVAYQYVKKGSQIYLEGKIDYGEYMDKNNVRRQATTIIADNIIFLSDQTKEKEC
notes: one cysteine residue added at the C-terminus for maleimide labelling; R107Q is a variant found in patients; PDB 6RUP is the wild-type parent's structure; not shown: His-tag, N-terminal, kept
Turning to B2, the “stoichiometry N” value in data set [5] was determined as 4.

B3: poly-dT60 (ssDNA)
DNA: TTTTTTTTTTTTTTTTTTTTTTTTTTTTTTTTTTTTTTTTTTTTTTTTTTTTTTTTTTTT
Regarding B3, the figures for the Kd in data set [6] and in data set [7] were 1.18 ± 0.02 nM and 1.17 ± 0.02 nM, respectively.

For the molecule TTTTTTTTTTTTTTTTTTTTTTTTTTTTTT (ssDNA) [poly-dT30], the Kd in data set [6] is 1.35 ± 0.04 nM; in data set [7] it was 2.18 ± 0.1 nM.
